Values joined by “and” are separate entries in the source; they are usually repeats but may differ in a detail not shown here. Equal values may be shown once. Read-outs that look alike come from different tables or passages of the source.
How the values were obtained:
[1] = test system: focal cerebral ischemia-reperfusion injury in rats; type: in vivo, Sprague-Dawley (SD) rats
thrombin = thrombin (Homo sapiens, UniProt P00734); assay: in vitro test for reversible reaction of TNHH and thrombin (Hirudin ELISA); type: biochemical; set-up: Human thrombin (127 Unit/ampoule), Lot No.: 20021105; purchased National Institute for The Control of Pharmaceutical and Biological Products Lot No.: 20021105
Method: Adding 1.27 ml water into one ampoule of human thrombin, and mixing to obtain 100 Unit/ml solution; diluting the mother liquid of TNHH with water to 1.0 mg/ml, taking 0.5 ml thus obtained solution and adding 0.1 ml thrombin solution ([…] of thrombin), reacting at 37 for 2 hr, centrifuging and collecting the supernatant, diluting for 10 times with the dilution solution (taught by the instruction of IMUBIND® Hirudin ELISA Kit), repeating the dilution for 6 times at a four fold gradient, detecting according to the instruction of IMUBIND® Hirudin ELISA Kit, and determining the absorbance at 450 nm wavelength.

blood coagulation system = assay: effects on blood coagulation system of New Zealand rabbits in vitro (APTT, PT, TT); type: biochemical, New Zealand rabbit; set-up: PT: unit not given beside the values; APTT / TT: unit not given here
Method: Medicaments were diluted to the following concentrations for use: TNHH: 3.0 mg/ml; 1.0 mg/ml; 333 μg/ml; bivalrudin: 600 μg/ml; 200 μg/ml; 67 μg/ml; Hirudin: 660 μg/ml; 220 μg/ml; 73 μg/ml.
The blood was sampled from six New Zealand rabbits (10×1.8 ml for each one) from marginal ear vein and added into 10 anticoagulation tubes, respectively. 3.2% sodium citrate (9:1) was added for anticoagulation.
20 μl anticoagulated blood was taken from each tube, followed by the addition of 20 μl above diluted medicaments for each tube. 20 μl physiological saline was added into the control tube. Samples were mixed thoroughly and centrifuged at 3000 rpm/min for 3 min, and plasma was send to Department of Clinical Laboratory, Southwest Hospital for determining blood coagulation indexes (APTT, TT and PT) with a full automatic coagulation analyzer and the difference before and after administration was obtained by comparison.

[2] = M-1, TNHH 2.25 mg/kg i.v. (middle dose)
[3] = M-1, TNHH 6.75 mg/kg i.v. (high dose)
[4] = M-2, TNHH 2.25 mg/kg i.v. (middle dose)
[5] = M-2, TNHH 6.75 mg/kg i.v. (high dose)
[6] = TNHH 3.33 μg/ml in rabbit blood
[7] = TNHH 10.00 μg/ml in rabbit blood
[8] = TNHH 30.00 μg/ml in rabbit blood

B1: TNHH: recombinant chimeric protein of neutrophil inhibitory factor and hirugen, Met-NIF-GGGGG-FPRPGSGG-Hirugen (SEQ ID NO: 3), expressed in E. coli (protein)
chain: MNEHNLRCPQNGTEMPGFNDSIRLQFLAMHNGYRSKLALGHISITEESESDDDDDFGFLPDFAPRASKMRYLEYDCEAEKSAYMSARNCSDSSSPPEGYDENKYIFENSNNISEAALKAMISWAKEAFNLNKTKEGEGVLYRSNHDISNFANLAWDAREKFGCAVVNCPLGEIDDETNHDGETYATTIHVVCHYPKINKTEGQPIYKVGTPCDDCSEYTKKADNTTSADPVCIPDDGVCFIGSKADYDSKEFYRFRELGGGGGFPRPGSGGNGDFEEIPEEYL
modifications: N-terminal Met
**Q.** B1 was tested. Which “Cerebral infarction volume (%), based on the total volume of the brain” value (“Cerebral infarction volume (%), based” below) ([1]; M-1 (occlusion 1 h, reperfusion 48 h), TNHH 0.75 mg/kg i.v. (low dose)) did it give?
**A.** Its value is 19.93±12.40%.

**Q.** What about the nervous symptom score ([1]; M-1 (occlusion 1 h, reperfusion 48 h), TNHH 0.75 mg/kg i.v., 2 h) of the same molecule?
**A.** The nervous symptom score was 1.46 ± 0.58.

**Q.** What about the “Decrease in percentage (%), compared with corresponding model group” value (“Decrease in percentage (%)” for short) ([1]; M-1, TNHH 0.75 mg/kg i.v. (low dose)) of the same molecule?
**A.** Its value is 10.54%.

**Q.** And the nervous symptom score ([1]; M-1, TNHH 0.75 mg/kg i.v., 6 h)?
**A.** Its nervous symptom score is 1.42 ± 0.60.

**Q.** And the nervous symptom score ([1]; M-1, TNHH 0.75 mg/kg i.v., 12 h)?
**A.** Its nervous symptom score is 1.42 ± 0.60.

**Q.** What about the nervous symptom score ([1]; M-1, TNHH 0.75 mg/kg i.v., 24 h) of the same molecule?
**A.** The nervous symptom score was 1.40 ± 0.43.

**Q.** And the nervous symptom score ([1]; M-1, TNHH 0.75 mg/kg i.v., 48 h)?
**A.** The nervous symptom score was 1.36 ± 0.62.

**Q.** And the “Cerebral infarction volume (%), based” value [1, 2]?
**A.** Its value is 19.41±11.74%.

**Q.** What about the “Decrease in percentage (%)” value [1, 2] of the same molecule?
**A.** The value was 12.88%.

**Q.** And the nervous symptom score ([1]; M-1, TNHH 2.25 mg/kg i.v., 2 h)?
**A.** Its nervous symptom score is 1.47 ± 0.92.

**Q.** And the nervous symptom score ([1]; M-1, TNHH 2.25 mg/kg i.v., 6 h)?
**A.** The nervous symptom score was 1.47 ± 0.92.

**Q.** And the nervous symptom score ([1]; M-1, TNHH 2.25 mg/kg i.v., 12 h)?
**A.** The nervous symptom score was 1.37 ± 0.92.

**Q.** What about the nervous symptom score ([1]; M-1, TNHH 2.25 mg/kg i.v., 24 h) of the same molecule?
**A.** Its nervous symptom score is 1.38 ± 0.41.

**Q.** And the nervous symptom score ([1]; M-1, TNHH 2.25 mg/kg i.v., 48 h)?
**A.** Its nervous symptom score is 1.30 ± 0.76.

**Q.** And the “Cerebral infarction volume (%), based” value [1, 3]?
**A.** Its value is 12.89±8.94%.

**Q.** And the “Decrease in percentage (%)” value [1, 3]?
**A.** The value was 42.14% and 42.15** %.

**Q.** What about the nervous symptom score ([1]; M-1, TNHH 6.75 mg/kg i.v., 2 h) of the same molecule?
**A.** The nervous symptom score was 1.50 ± 0.58.

**Q.** And the nervous symptom score ([1]; M-1, TNHH 6.75 mg/kg i.v., 6 h)?
**A.** Its nervous symptom score is 1.50 ± 0.68.

**Q.** And the nervous symptom score ([1]; M-1, TNHH 6.75 mg/kg i.v., 12 h)?
**A.** Its nervous symptom score is 1.39 ± 0.65.

**Q.** And the nervous symptom score ([1]; M-1, TNHH 6.75 mg/kg i.v., 24 h)?
**A.** Its nervous symptom score is 1.20 ± 0.36.

**Q.** What about the nervous symptom score ([1]; M-1, TNHH 6.75 mg/kg i.v., 48 h) of the same molecule?
**A.** Its nervous symptom score is 1.00 ± 0.42.

**Q.** What about the “Cerebral infarction volume (%), based” value ([1]; M-2 (occlusion 2 h, reperfusion 48 h), TNHH 0.75 mg/kg i.v. (low dose)) of the same molecule?
**A.** Its value is 27.52±17.63% and 27.52 ± 7.63%.

**Q.** What about the nervous symptom score ([1]; M-2 (occlusion 2 h, reperfusion 48 h), TNHH 0.75 mg/kg i.v., 2 h) of the same molecule?
**A.** Its nervous symptom score is 1.94 ± 0.56.

**Q.** What about the “Decrease in percentage (%)” value ([1]; M-2, TNHH 0.75 mg/kg i.v. (low dose)) of the same molecule?
**A.** The value was 3.63%.

**Q.** And the nervous symptom score ([1]; M-2, TNHH 0.75 mg/kg i.v., 6 h)?
**A.** Its nervous symptom score is 1.94 ± 0.56.

**Q.** What about the nervous symptom score ([1]; M-2, TNHH 0.75 mg/kg i.v., 12 h) of the same molecule?
**A.** The nervous symptom score was 1.94 ± 0.73.

**Q.** What about the nervous symptom score ([1]; M-2, TNHH 0.75 mg/kg i.v., 24 h) of the same molecule?
**A.** The nervous symptom score was 1.88 ± 0.64.

**Q.** What about the nervous symptom score ([1]; M-2, TNHH 0.75 mg/kg i.v., 48 h) of the same molecule?
**A.** Its nervous symptom score is 1.86 ± 0.77.

**Q.** What about the “Cerebral infarction volume (%), based” value [1, 4] of the same molecule?
**A.** Its value is 26.07±8.06%.

**Q.** And the “Decrease in percentage (%)” value [1, 4]?
**A.** Its value is 7.42%.

**Q.** And the nervous symptom score ([1]; M-2, TNHH 2.25 mg/kg i.v., 2 h)?
**A.** The nervous symptom score was 1.81 ± 0.92.

**Q.** What about the nervous symptom score ([1]; M-2, TNHH 2.25 mg/kg i.v., 6 h) of the same molecule?
**A.** The nervous symptom score was 1.80 ± 0.92.

**Q.** What about the nervous symptom score ([1]; M-2, TNHH 2.25 mg/kg i.v., 12 h) of the same molecule?
**A.** The nervous symptom score was 1.79 ± 0.92.

**Q.** And the nervous symptom score ([1]; M-2, TNHH 2.25 mg/kg i.v., 24 h)?
**A.** The nervous symptom score was 1.68 ± 0.41.

**Q.** And the nervous symptom score ([1]; M-2, TNHH 2.25 mg/kg i.v., 48 h)?
**A.** Its nervous symptom score is 1.67 ± 0.76.

**Q.** And the “Cerebral infarction volume (%), based” value [1, 5]?
**A.** The value was 19.72±8.90% and 19.72 ± 5.90%.

**Q.** What about the “Decrease in percentage (%)” value [1, 5] of the same molecule?
**A.** The value was 29.97%.

**Q.** And the nervous symptom score ([1]; M-2, TNHH 6.75 mg/kg i.v., 2 h)?
**A.** The nervous symptom score was 1.75 ± 0.52.

**Q.** And the nervous symptom score ([1]; M-2, TNHH 6.75 mg/kg i.v., 6 h)?
**A.** Its nervous symptom score is 1.75 ± 0.27.

**Q.** What about the nervous symptom score ([1]; M-2, TNHH 6.75 mg/kg i.v., 12 h) of the same molecule?
**A.** Its nervous symptom score is 1.50 ± 0.45.

**Q.** What about the nervous symptom score ([1]; M-2, TNHH 6.75 mg/kg i.v., 24 h) of the same molecule?
**A.** The nervous symptom score was 1.37 ± 0.52.

**Q.** What about the nervous symptom score ([1]; M-2, TNHH 6.75 mg/kg i.v., 48 h) of the same molecule?
**A.** Its nervous symptom score is 1.22 ± 0.38.

**Q.** And the “in vitro interaction with thrombin (reversibility)” value (thrombin; 37, 2 hr, Hirudin ELISA of supernatant)?
**A.** The value was “irreversible”.

**Q.** And the hydrolysis by thrombin (thrombin; structure FPRP-GSGG-hirugen within TNHH)?
**A.** The hydrolysis by thrombin was “could not be hydrolyzed by thrombin”.

**Q.** What about the APTT (blood coagulation system; [6]) of the same molecule?
**A.** The APTT was 33.73 ± 6.35.

**Q.** What about the PT (blood coagulation system; [6]) of the same molecule?
**A.** The PT was 7.08 ± 0.28.

**Q.** What about the TT (blood coagulation system; [6]) of the same molecule?
**A.** The TT was 17.13 ± 1.46.

**Q.** And the APTT (blood coagulation system; [7])?
**A.** The APTT was 31.87 ± 4.46.

**Q.** And the PT (blood coagulation system; [7])?
**A.** The PT was 7.15 ± 0.24.

**Q.** And the TT (blood coagulation system; [7])?
**A.** The TT was 20.43 ± 1.59.

**Q.** And the APTT (blood coagulation system; [8])?
**A.** Its APTT is 38.08 ± 5.53.

**Q.** What about the PT (blood coagulation system; [8]) of the same molecule?
**A.** Its PT is 7.27 ± 0.38.

**Q.** What about the TT (blood coagulation system; [8]) of the same molecule?
**A.** Its TT is 30.00 ± 4.81.

From US8361965B2, “Recombinant chimeric protein of neutrophil inhibitory factor and hirugen, and pharmaceutical composition thereof” (Lunan Pharmaceutical Group Corporation, priority 2008, dated 2013)
